The values below come from publication PMC10095280.

The target of assay [1] is β-arrestin2 (UniProt P32121). Briefly: direct BRET, D1R-Rluc8 and β-arrestin2-mVenus. Conditions: reference: wild type.
Assay [2] deals with β-arrestin2 (UniProt P32121). In words: bystander BRET, β-arrestin2-Rluc2 to membrane GFP-CAAX. Conditions: for percent of reference: reference: wild type.
In assay [3] the target is β-arrestin2 (UniProt P32121). In words: β-arrestin recruitment BRET, type not stated. Conditions: reference: wild type; sites S417,S421,T428,S431,T439,S441,S445,T446.
Setting [4] is: sites S256,S258,S259,T360,S362,S372,S373,S380,T428,S431,T439,S441,S445,T446.

“D1 dopamine receptor (D1R) (from UniProt P18901) S6A (S362A)”: in assay [1] (sites S362), the percent of reference result was “weaker; reference 100”.

“D1 dopamine receptor (D1R) (from UniProt P18901) PKC-null”: the “other: Emax, % of WT D1R” value in assay [2] (reference: PKC-null + A259S (S259 restored), sites S259) was “same; reference 59 ± 9.4”.

As to “D1 dopamine receptor (D1R) T1 truncation, stop after 370 (from UniProt P18901) D1R T1 + T5V/S6A”, the “other: Emax, % of full-length WT D1R” value in assay [2] (reference: D1R T1 truncation, sites T360,S362) is on record as “weaker; reference 112 ± 5.1”.

As to “D1 dopamine receptor (D1R) (from UniProt P18901) PKC-null (S259A/S397A/S398A/S417A/S421A)”, the percent of reference result in assay [2] (sites S259,S397,S398,S417,S421) is recorded as “weaker; reference 100”.

Consider “D1 dopamine receptor (D1R) (from UniProt P18901) GRK-null (14 GRK sites mutated)”, for which the percent of reference entry in assay [2] (setting [4]) and in assay [1] (setting [4]) was “lost; reference 100” throughout.

On to “D1 dopamine receptor (D1R) (from UniProt P18901) Tail Total (all 20 C-terminal S/T mutated)”, for which the percent of reference entry in assay [1] (sites S342,T343,T353,T354,T360,S362,S372,S373,S380,S382,S397,S398,S417,S421,T428,S431,T439,S441,S445,T446) is “weaker; reference 100”.

Regarding “D1 dopamine receptor (D1R) (from UniProt P18901) S13–S20 mutant (8 distal C-terminal S/T mutated)”, the percent of reference entry in assay [3] is listed as “weaker; reference 100”.

For the substance “D1 dopamine receptor (D1R) (from UniProt P18901) S2/S3/S4 mutant (S256A/S258A/S259A)”, in assay [2] (sites S256,S258,S259), the percent of reference entry is “weaker; reference 100”.

Take “D1 dopamine receptor (D1R) (from UniProt P18901) T5V (T360V)”: the percent of reference entry in assay [1] (sites T360) is listed as “weaker; reference 100”.

For “D1 dopamine receptor (D1R) (from UniProt P18901) T5V/S6A (T360V/S362A)”, the percent of reference entry in assay [2] (sites T360,S362) and in assay [1] (sites T360,S362) was “weaker; reference 100” each time.
